Laboratory results as given in patent publication US20110028686A1, “Protein binding miniature proteins” (Yale University, priority 2000, published 2011).
Square brackets hold non-standard residues; d marks the D form. Primed or numbered codes have the meaning given here. Ends that are not written are not given here. acetamidofluorescein″ = acetamidofluorescein (5-iodoacetamidofluorescein attached to the C-terminal Cys); pS = N[C@@H](COP(=O)(O)O)C(=O)O; Sar = CNCC(=O)O

Tests used:
FP with CBP KIX = substrate: CBP KIX, wild type (Example 20) (UniProt P45481); assay: FP with CBP KIX
CBP KIX, wild type (Example 20), sequence (P45481 586-665 limits assumed): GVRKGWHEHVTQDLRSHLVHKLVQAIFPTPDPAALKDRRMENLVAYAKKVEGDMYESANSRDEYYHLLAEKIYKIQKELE

[1] = substrate: CBP KIX, wild type (Example 20) (UniProt P45481); assay: FP, fluorescein-labelled PPKID4^P variant titrated with CBP KIX
GST-KIXY650A = GST-KIXY650A (UniProt P45481); assay: FP, 25 nM fluorescein-labelled peptide titrated with GST-KIXY650A, 25 C
GST-KIXY650A, sequence (P45481 586-665 Y650A): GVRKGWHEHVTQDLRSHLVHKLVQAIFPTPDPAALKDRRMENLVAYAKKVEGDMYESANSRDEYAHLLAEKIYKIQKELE

Binder	ΔΔG relative to wild type PPKID4^P (FP with CBP KIX) [kcal/mol]	Kd [1] [nM]	fold less stable than the wild type GST-KIX complex (GST-KIXY650A) [fold]
G[Sar]SQPTYPGDDAPVRRL[pS]FFYILLDLYLDAPGVC(acetamidofluorescein″)-NH2 (designed binder) [PPKID4^P P2Z]	0.18	830	
GPSQ[Sar]TYPGDDAPVRRL[pS]FFYILLDLYLDAPGVC(acetamidofluorescein″)-NH2 (designed binder) [PPKID4^P P5Z]	0.16	800	

Next, values leading:

ΔΔG relative to wild type PPKID4^P (FP with CBP KIX) [kcal/mol]	Kd [1] [nM]	fold less stable than the wild type GST-KIX complex (GST-KIXY650A) [fold]	Binder
0.15	780		GPSQPTY[Sar]GDDAPVRRL[pS]FFYILLDLYLDAPGVC(acetamidofluorescein″)-NH2 (designed binder) [PPKID4^P P8Z]
		15	TDSQKRREILSRRP[pS]YRKILNDLSSDAPGVC-NH2 (also: C-terminal Cys acetamidofluorescein-labelled in direct assays, unlabelled as competitor) [KID-AB^P]
